According to patent US20210380703A1 (RIGEL PHARMACEUTICALS, published 2021):

How the values were obtained:
Mouse ACVR2A = Mouse ACVR2A (mouse, UniProt P27038 20-135, limits assumed); assay: ELISA
Method in brief: (§1)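 Monoclonal antibodies were first applied to human or mouse ACVR2A, alongside biotinylated goat anti-human kappa light chain (positive control) and human Fc (negative control); binding was then determined by ELISA.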

Human ACVR2A = biological target: T1, Human ACVR2A (human, UniProt P27037 20-135, limits assumed); assay: ELISA
T1 construct: also called activin receptor, type II A
Method in brief: as §1

Goat anti-Human Kappa = biological target: T2, Goat anti-Human Kappa; assay: ELISA, positive control
T2 construct: Positive control of the ELISA; also called biotinylated goat anti-human kappa light chain
Method in brief: as §1
Also: test concentration or dose not given here.

T1 sequence (P27037 20-135 limits assumed): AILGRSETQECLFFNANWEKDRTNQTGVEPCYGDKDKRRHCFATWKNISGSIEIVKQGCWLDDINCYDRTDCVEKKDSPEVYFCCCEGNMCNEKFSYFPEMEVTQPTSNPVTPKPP
Mouse ACVR2A, sequence (P27038 20-135 limits assumed): as the sequence (P27037 20-135 limits assumed) above, with K20R, V73I counted along it

Row | Binder | optical density (Mouse ACVR2A) | optical density (Human ACVR2A) | optical density (Goat anti-Human Kappa)
1 | 371_D09 (antibody, V domains shown) VH: EVQLLESGGGLVQPGGSLRLSCAASGFTFSSYSMNWVRQAPGKGLEWVSNINYNSGYTGYADSVKGRFTISRDNSKNTLYLQMNSLRAEDTAVYYCARSANWHDTALDYWGQGTLVTVSS VL: DIQMTQSPSSLSASVGDRVTITCRASQSILTYLNWYQQKPGKAPKLVIYAATSRASGVPSRFSGSGSGTDFTLTISSLQPEDFATYYCQQSYNNPLTFGGGTKVEIK | 2.94 OD | 2.89 OD | 2.17 OD
2 | 371_F01 (antibody, V domains shown) VH: EVQLLESGGGLVQPGGSLRLSCAASGFTFSSYSMNWVRQAPGKGLEWVAGINYNGGYTGYADSVKGRFTISRDNSKNTLYLQMNSLRAEDTAVYYCARSANWHDTALDYWGQGTLVTVSS VL: DIQMTQSPSSLSASVGDRVTITCRASQSILTYVNWYQQKPGKAPKLVIYAATSLASGVPSRFSGSGSGTDFTLTISSLQPEDFATYYCQQSYNNPLTFGGGTKVEIK | 2.62 OD | 2.41 OD | 3.68 OD
3 | 371_F04 (antibody, V domains shown) VH: EVQLLESGGGLVQPGGSLRLSCAASGFTFDSYSMNWVRQAPGKGLEWVAGINYNSGYKGYADSVKGRFTISRDNSKNTLYLQMNSLRAEDTAVYYCARSANWHDTALDYWGQGTLVTVSS VL: DIQMTQSPSSLSASVGDRVTITCRASQSILSYLNWYQQKPGKAPKLLIYAATSRHSGVPSRFSGSGSGTDFTLTISSLQPEDFATYYCQQSYNNPLTFGGGTKVEIK | 3.1 OD | 2.95 OD | 3.66 OD
4 | 371_F06 (antibody, V domains shown) VH: EVQLLESGGGLVQPGGSLRLSCAASGFTFDSYSMNWVRQAPGKGLEWVANINYNGGYTSYADSVKGRFTISRDNSKNTLYLQMNSLRAEDTAVYYCARSANWHDTALDYWGQGTLVTVSS VL: DIQMTQSPSSLSASVGDRVTITCRASQSIVSYLNWYQQKPGKAPKLVIYAATSRHSGVPSRFSGSGSGTDFTLTISSLQPEDFATYYCQQSYNSPLTFGGGTKVEIK | 2.79 OD | 2.41 OD | 3.46 OD
5 | 371_F08 (antibody, V domains shown) VH: EVQLLESGGGLVQPGGSLRLSCAASGFTFDDYSMNWVRQAPGKGLEWVSGINYNGGYTGYADSVKGRFTISRDNSKNTLYLQMNSLRAEDTAVYYCARSANWHDTALDYWGQGTLVTVSS VL: DIQMTQSPSSLSASVGDRVTITCRASQSIVSYVNWYQQKPGKAPKLVIYAATSRHSGVPSRFSGSGSGTDFTLTISSLQPEDFATYYCQQSYESPLTFGGGTKVEIK | 2.55 OD | 2.2 OD | 3.43 OD
6 | 371_G05 (antibody, V domains shown) VH: EVQLLESGGGLVQPGGSLRLSCAASGFTFDSYSMNWVRQAPGKGLEWVSGINYNSGYTGYADSVKGRFTISRDNSKNTLYLQMNSLRAEDTAVYYCARSANWHDTALDYWGQGTLVTVSS VL: DIQMTQSPSSLSASVGDRVTITCRASQSISSYLNWYQQKPGKAPKLLIYAVTSRASGVPSRFSGSGSGTDFTLTISSLQPEDFATYYCQQSYSSPLTFGGGTKVEIK | 1.33 OD | 1.25 OD | 3.08 OD
7 | 371_G10 (antibody, V domains shown) VH: EVQLLESGGGLVQPGGSLRLSCAASGFTFSSYSMNWVRQAPGKGLEWVSGINYNGGYKSYADSVKGRFTISRDNSKNTLYLQMNSLRAEDTAVYYCARSANWHDTALDYWGQGTLVTVSS VL: DIQMTQSPSSLSASVGDRVTITCRASQSISSYVNWYQQKPGKAPKLLIYAATSRHSGVPSRFSGSGSGTDFTLTISSLQPEDFATYYCQQSDDSPLTFGGGTKVEIK | 1.92 OD | 1.65 OD | 3.41 OD
8 | 372_A04 (antibody, V domains shown) VH: EVQLLESGGGLVQPGGSLRLSCAASGFTFDSYSMNWVRQAPGKGLEWVSGINYNSGYTSYADSVKGRFTISRDNSKNTLYLQMNSLRAEDTAVYYCARSANWHDTALDYWGQGTLVTVSS VL: DIQMTQSPSSLSASVGDRVTITCRASQSILTYLNWYQQKPGKAPKLVIYAATSRASGVPSRFSGSGSGTDFTLTISSLQPEDFATYYCQQSYETPLTFGGGTKVEIK | 3.4 OD | 3.2 OD | 3.64 OD
9 | 372_B04 (antibody, V domains shown) VH: EVQLLESGGGLVQPGGSLRLSCAASGFTFDSYGMNWVRQAPGKGLEWVANINYNGGYTSYADSVKGRFTISRDNSKNTLYLQMNSLRAEDTAVYYCARSANWHDTALDYWGQGTLVTVSS VL: DIQMTQSPSSLSASVGDRVTITCRASQSILSYVNWYQQKPGKAPKLVIYAATSLASGVPSRFSGSGSGTDFTLTISSLQPEDFATYYCQQSYDSPLTFGGGTKVEIK | 3.12 OD | 2.61 OD | 3.59 OD
10 | 372_F03 (antibody, V domains shown) VH: EVQLLESGGGLVQPGGSLRLSCAASGFTFSSYGMNWVRQAPGKGLEWVAGINYNGGYTSYADSVKGRFTISRDNSKNTLYLQMNSLRAEDTAVYYCARSANWHDTALDYWGQGTLVTVSS VL: DIQMTQSPSSLSASVGDRVTITCRASQSILSYLNWYQQKPGKAPKLVIYAATSRASGVPSRFSGSGSGTDFTLTISSLQPEDFATYYCQQSYDTPLTFGGGTKVEIK | 3.31 OD | 3.19 OD | 3.6 OD
11 | 372_F06 (antibody, V domains shown) VH: EVQLLESGGGLVQPGGSLRLSCAASGFTFSDYGMNWVRQAPGKGLEWVAGINYNGGYKSYADSVKGRFTISRDNSKNTLYLQMNSLRAEDTAVYYCARSANWHDTALDYWGQGTLVTVSS VL: DIQMTQSPSSLSASVGDRVTITCRASQSILSYVNWYQQKPGKAPKLLIYAATSLASGVPSRFSGSGSGTDFTLTISSLQPEDFATYYCQQSYETPLTFGGGTKVEIK | 2.54 OD | 2.26 OD | 3.48 OD
12 | 373_A08 (antibody, V domains shown) VH: EVQLLESGGGLVQPGGSLRLSCAASGFTFDSYGMNWVRQAPGKGLEWVSNINYNGGYTGYADSVKGRFTISRDNSKNTLYLQMNSLRAEDTAVYYCARSANWHDTALDYWGQGTLVTVSS VL: DIQMTQSPSSLSASVGDRVTITCRASQSIVSYVNWYQQKPGKAPKLLIYAATSLASGVPSRFSGSGSGTDFTLTISSLQPEDFATYYCQQSYSLPLTFGGGTKVEIK | 3.31 OD | 3.3 OD | 3.11 OD
13 | 373_A10 (antibody, V domains shown) VH: EVQLLESGGGLVQPGGSLRLSCAASGFTFSSYGMNWVRQAPGKGLEWVSGINYNSGYTSYADSVKGRFTISRDNSKNTLYLQMNSLRAEDTAVYYCARSANWHDTALDYWGQGTLVTVSS VL: DIQMTQSPSSLSASVGDRVTITCRASQSILSYLNWYQQKPGKAPKLVIYAATSRASGVPSRFSGSGSGTDFTLTISSLQPEDFATYYCQQSYDLPLTFGGGTKVEIK | 3.55 OD | 3.54 OD | 3.1 OD

More lines, now with the values ahead:

Row | optical density (Mouse ACVR2A) | optical density (Human ACVR2A) | optical density (Goat anti-Human Kappa) | Binder
14 | 3.23 OD | 2.96 OD | 3.66 OD | 371_H09 (antibody, V domains shown) VH: EVQLLESGGGLVQPGGSLRLSCAASGFTFDSYSMNWVRQAPGKGLEWVSNINYNGGYTSYADSVKGRFTISRDNSKNTLYLQMNSLRAEDTAVYYCARSANWHDTALDYWGQGTLVTVSS VL: DIQMTQSPSSLSASVGDRVTITCRASQSILTYVNWYQQKPGKAPKLVIYAATSLASGVPSRFSGSGSGTDFTLTISSLQPEDFATYYCQQSYDSPLTFGGGTKVEIK
15 | 2.64 OD | 2.41 OD | 3.46 OD | 372_C07 (antibody, V domains shown) VH: EVQLLESGGGLVQPGGSLRLSCAASGFTFSDYSMNWVRQAPGKGLEWVSNINYNSGYTSYADSVKGRFTISRDNSKNTLYLQMNSLRAEDTAVYYCARSANWHDTHLDYWGQGTLVTVSS VL: DIQMTQSPSSLSASVGDRVTITCRASQSILSYLNWYQQKPGKAPKLVIYAATSRHSGVPSRFSGSGSGTDFTLTISSLQPEDFATYYCQQSDNTPLTFGGGTKVEIK
16 | 2.91 OD | 2.66 OD | 3.58 OD | 372_D02 (antibody, V domains shown) VH: EVQLLESGGGLVQPGGSLRLSCAASGFTFSSYGMHWVRQAPGKGLEWVAGINYNGGYTGYADSVKGRFTISRDNSKNTLYLQMNSLRAEDTAVYYCARSANWHDTALDYWGQGTLVTVSS VL: DIQMTQSPSSLSASVGDRVTITCRASQSILTYLNWYQQKPGKAPKLVIYAATSRASGVPSRFSGSGSGTDFTLTISSLQPEDFATYYCQQSYDNPLTFGGGTKVEIK
17 | 3.22 OD | 3.38 OD | 3.44 OD | 372_F08 (antibody, V domains shown) VH: EVQLLESGGGLVQPGGSLRLSCAASGFTFSDYSMNWVRQAPGKGLEWVSNINYNSGYTGYADSVKGRFTISRDNSKNTLYLQMNSLRAEDTAVYYCARSANWHDTALDYWGQGTLVTVSS VL: DIQMTQSPSSLSASVGDRVTITCRASQSILTYVNWYQQKPGKAPKLVIYAATSRASGVPSRFSGSGSGTDFTLTISSLQPEDFATYYCQQSYDTPLTFGGGTKVEIK
18 | 3.04 OD | 3.17 OD | 3.47 OD | 372_F09 (antibody, V domains shown) VH: EVQLLESGGGLVQPGGSLRLSCAASGFTFDSYSMNWVRQAPGKGLEWVANINYNSGYKGYADSVKGRFTISRDNSKNTLYLQMNSLRAEDTAVYYCARSANWHDTALDYWGQGTLVTVSS VL: DIQMTQSPSSLSASVGDRVTITCRASQSILTYLNWYQQKPGKAPKLVIYAATSLASGVPSRFSGSGSGTDFTLTISSLQPEDFATYYCQQSYSSPLTFGGGTKVEIK
19 | 2.97 OD | 2.8 OD | 2.96 OD | 373_A02 (antibody, V domains shown) VH: EVQLLESGGGLVQPGGSLRLSCAASGFTFDSYGMNWVRQAPGKGLEWVSGINYNGGYKGYADSVKGRFTISRDNSKNTLYLQMNSLRAEDTAVYYCARSANWHDTALDYWGQGTLVTVSS VL: DIQMTQSPSSLSASVGDRVTITCRASQSILSYVNWYQQKPGKAPKLVIYATTSLASGVPSRFSGSGSGTDFTLTISSLQPEDFATYYCQQSYNTPLTFGGGTKVEIK
